Here are results for 2 molecules from PMC10397247.

What all share (assay): two-hybrid library CCNG1;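 further: natural log of median RNA to DNA barcode read ratio; higher means stronger binding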
For test [1], the target named is T1, 4H3628-bH.
T1 chain: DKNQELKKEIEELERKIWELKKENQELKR

Test [2] has as its target T2, 4H3817-bH.
T2 chain: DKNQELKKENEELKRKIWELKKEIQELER

The target of test [3] is T3, 4H3462-bH.
T3 chain: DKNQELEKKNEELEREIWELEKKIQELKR

For test [4], the target named is T4, 4H1348-bH.
T4 chain: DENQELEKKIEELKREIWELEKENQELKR

Test [5] has as its target T5, 4H1899-bH.
T5 chain: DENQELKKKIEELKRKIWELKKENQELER

Test [6] has as its target T6, 4H3858-bH.
T6 chain: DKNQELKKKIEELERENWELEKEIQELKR

In test [7] the target is T7, 4H3277-bH.
T7 chain: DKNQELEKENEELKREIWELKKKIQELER

Test [8] has as its target T8, 4H3175-bH.
T8 chain: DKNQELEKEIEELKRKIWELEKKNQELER

For test [9], the target named is T9, 4H3162-bH.
T9 chain: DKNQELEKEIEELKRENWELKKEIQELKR

Test [10] concerns the target T10, 4H1544-bH.
T10 chain: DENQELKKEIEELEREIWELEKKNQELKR

The target in test [11] is T11, 4H3497-bH.
T11 chain: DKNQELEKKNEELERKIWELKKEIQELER

The target in test [12] is T12, 4H3298-bH.
T12 chain: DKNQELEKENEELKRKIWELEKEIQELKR

The target of test [13] is T13, 4H570-bH.
T13 chain: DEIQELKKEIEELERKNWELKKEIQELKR

The target in test [14] is T14, 4H1373-bH.
T14 chain: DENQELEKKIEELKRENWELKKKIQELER

Test [15] addresses T15, 4H3974-bH.
T15 chain: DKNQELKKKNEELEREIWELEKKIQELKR

Test [16] has as its target T16, 4H591-bH.
T16 chain: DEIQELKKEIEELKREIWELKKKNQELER

Test [17] addresses T17, 4H1985-bH.
T17 chain: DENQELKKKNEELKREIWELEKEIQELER

The target in test [18] is T18, 4H1449-bH.
T18 chain: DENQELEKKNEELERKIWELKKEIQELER

In test [19] the target is T19, 4H850-bH.
T19 chain: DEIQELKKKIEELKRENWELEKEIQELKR

For test [20], the target named is T20, 4H3926-bH.
T20 chain: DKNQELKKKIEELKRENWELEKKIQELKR

Test [21] addresses T21, 4H626-bH.
T21 chain: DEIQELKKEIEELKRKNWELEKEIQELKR

Test [22] deals with T22, 4H3613-bH.
T22 chain: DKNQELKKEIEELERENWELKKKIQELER

Test [23] concerns the target T23, 4H3185-bN.
T23 chain: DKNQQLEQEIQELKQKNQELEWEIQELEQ

For test [24], the target named is T24, 4H1710-bH.
T24 chain: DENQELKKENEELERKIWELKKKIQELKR

Test [25] addresses T25, 4H906-bH.
T25 chain: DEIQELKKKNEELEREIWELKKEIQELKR

Test [26] has as its target T26, O2-bA.
T26 chain: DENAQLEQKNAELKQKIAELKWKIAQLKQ

In test [27] the target is T27, O6-bA.
T27 chain: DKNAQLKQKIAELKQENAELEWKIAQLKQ

Test [28] concerns the target T28, O8-bA.
T28 chain: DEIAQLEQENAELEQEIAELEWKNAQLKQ

In test [29] the target is T29, O3-bA.
T29 chain: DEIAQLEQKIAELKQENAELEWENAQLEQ

Test [30] deals with T30, O11-bA.
T30 chain: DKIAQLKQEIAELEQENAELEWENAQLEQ

For test [31], the target named is T31, O9-bA.
T31 chain: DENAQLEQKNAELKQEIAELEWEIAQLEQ

Test [32] deals with T32, O15-bA.
T32 chain: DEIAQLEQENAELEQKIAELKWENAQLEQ

Test [33] concerns the target T33, O14-bA.
T33 chain: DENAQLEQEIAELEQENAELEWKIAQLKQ

The target in test [34] is T34, O4-bA.
T34 chain: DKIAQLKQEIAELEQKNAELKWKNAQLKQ

Test [35] concerns the target T35, O13-bA.
T35 chain: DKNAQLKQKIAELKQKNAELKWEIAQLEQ

Test [36] has as its target T36, O16-bA.
T36 chain: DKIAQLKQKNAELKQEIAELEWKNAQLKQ

In test [37] the target is T37, O7-bA.
T37 chain: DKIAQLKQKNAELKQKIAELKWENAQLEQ

Test [38] concerns the target T38, O12-bA.
T38 chain: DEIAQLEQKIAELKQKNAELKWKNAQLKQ

Test [39] concerns the target T39, O5-bA.
T39 chain: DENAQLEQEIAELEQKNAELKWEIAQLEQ

Regarding DENQELEKKIEELKREIWELEKENQELKR [4H1348-bH], the interaction score in test [1] came out at 1.42; in test [2], 0.205; in [3], 0.558; in test [4], 0.814; in [5], 0.883; in test [6], 0.0862. The interaction score was -0.13 in test [7]; 0.435 in [8]; 0.415 in [9]; 1.3 in test [10]; 0.0523 in [11]; 0.0904 in [12]. In addition, the interaction score in [13] was -0.807; in [14], 0.103; in test [15], 1.36; in [16], -1.39; in test [17], 0.722; in [18], 1.19. In addition, the interaction score was 0.659 in test [19]; 0.857 in [20]; -1.01 in test [21]; -1.69 in test [22]; -1.2 in test [23]; -0.0273 in test [24]. For the same molecule, in [25], the interaction score was -0.14.
Regarding DKIAQLKQEIAELEQENAELEWENAQLEQ [O11-bA], the interaction score in test [26] was -0.637; in test [27], -0.9; in test [28], -1.31; in test [29], -0.525; in [30] it was -0.526; in test [31], -0.659. Moreover, the interaction score was -0.971 in test [32]; -0.951 in [33]; 2.16 in test [34]; -1.12 in [35]; -0.988 in test [36]; -0.686 in [37]. The interaction score in test [38] is 2.25; in [39] it was -0.78.
